Laboratory results reported in US20160264649A1.

Experiments:
Experiment in all cases: cell-based or functional assay
[1] = molecular target: HIV-1 Env of isolate 6535.3 (HIV-1)
[2] = molecular target: HIV-1 Env of isolate 92 BR 020 (HIV-1)
[3] = molecular target: HIV-1 Env of isolate 93IN905 (HIV-1)
[4] = molecular target: HIV-1 Env of isolate 93MW959 (HIV-1)
[5] = molecular target: HIV-1 Env of isolate 93TH305 (HIV-1)
[6] = molecular target: HIV-1 Env of isolate 97ZA012 (HIV-1)
[7] = molecular target: HIV-1 Env of isolate 98IN022 (HIV-1)
[8] = molecular target: HIV-1 Env of isolate APV_13 (HIV-1)
[9] = molecular target: HIV-1 Env of isolate APV_17 (HIV-1)
[10] = molecular target: HIV-1 Env of isolate CAAN.A2 (HIV-1)
[11] = molecular target: HIV-1 Env of isolate JRCSF (HIV-1) (UniProt P20871)
[12] = molecular target: HIV-1 Env of isolate JRFL (HIV-1)
[13] = molecular target: HIV-1 Env of isolate MG RM-C-020 (HIV-1)
[14] = molecular target: HIV-1 Env of isolate MG RM-C-022 (HIV-1)
[15] = molecular target: HIV-1 Env of isolate MG RM-C-023 (HIV-1)
[16] = molecular target: HIV-1 Env of isolate MG RM-C-024 (HIV-1)
[17] = molecular target: HIV-1 Env of isolate MG RM-C-025 (HIV-1)
[18] = molecular target: HIV-1 Env of isolate MG RM-C-026 (HIV-1)
[19] = molecular target: HIV-1 Env of isolate MG RM-C-027 (HIV-1)
[20] = molecular target: HIV-1 Env of isolate MG RM-C-028 (HIV-1)
[21] = molecular target: HIV-1 Env of isolate MGRM-Chronic-B-001 (HIV-1)
[22] = molecular target: HIV-1 Env of isolate MGRM-Chronic-B-002 (HIV-1)
[23] = molecular target: HIV-1 Env of isolate MGRM-Chronic-B-003 (HIV-1)
[24] = molecular target: HIV-1 Env of isolate MGRM-Chronic-B-004 (HIV-1)
[25] = molecular target: HIV-1 Env of isolate MGRM-Chronic-B-008 (HIV-1)
[26] = molecular target: HIV-1 Env of isolate MGRM-Chronic-B-010 (HIV-1)
[27] = molecular target: HIV-1 Env of isolate MGRM-Chronic-B-011 (HIV-1)
[28] = molecular target: HIV-1 Env of isolate MGRM-Chronic-B-012 (HIV-1)
[29] = molecular target: HIV-1 Env of isolate MGRM-Chronic-B-017 (HIV-1)
[30] = molecular target: HIV-1 Env of isolate MGRM-Chronic-B-018 (HIV-1)
[31] = molecular target: HIV-1 Env of isolate MGRM-Chronic-B-020 (HIV-1)
[32] = molecular target: HIV-1 Env of isolate MGRM-Chronic-B-023 (HIV-1)
[33] = molecular target: HIV-1 Env of isolate MGRM-Chronic-B-024 (HIV-1)
[34] = molecular target: HIV-1 Env of isolate NL43 (HIV-1)
[35] = molecular target: HIV-1 Env of isolate PVO.4 (HIV-1)
[36] = molecular target: HIV-1 Env of isolate QH0692.42 (HIV-1)
[37] = molecular target: HIV-1 Env of isolate SC422661.8 (HIV-1)
[38] = molecular target: HIV-1 Env of isolate SF162 (HIV-1) (UniProt P19550)
[39] = molecular target: HIV-1 Env of isolate THR0.18 (HIV-1)
[40] = molecular target: HIV-1 Env of isolate TRJ04551.58 (HIV-1)
[41] = molecular target: HIV-1 Env of isolate TRO.11 (HIV-1)
[42] = molecular target: HIV-1 Env of isolate VLGCB3 (HIV-1)
[43] = molecular target: HIV-1 Env of isolate APV_6 (HIV-1)

Question: With “PGT-121 monoclonal antibody (4838_L06; 4873_E03)” as the substance, how does the neutralization IC50 [1] read?
Answer: 0.005 µg/mL

Question: What about the neutralization IC50 [2] of the same substance?
Answer: 0.014 µg/mL

Question: What about the neutralization IC50 [3] of the same substance?
Answer: 0.005 µg/mL

Question: And the neutralization IC50 [4]?
Answer: 0.013 µg/mL

Question: And the neutralization IC50 [5]?
Answer: 0.007 µg/mL

Question: What about the neutralization IC50 [6] of the same substance?
Answer: 0.002 µg/mL

Question: What about the neutralization IC50 [7] of the same substance?
Answer: 0.007 µg/mL

Question: And the neutralization IC50 [8]?
Answer: 0.251 µg/mL

Question: And the neutralization IC50 [9]?
Answer: 0.066 µg/mL

Question: What about the neutralization IC50 [10] of the same substance?
Answer: 0.011 µg/mL

Question: And the neutralization IC50 [11]?
Answer: 0.027 µg/mL

Question: And the neutralization IC50 [12]?
Answer: 0.021 µg/mL

Question: And the neutralization IC50 [13]?
Answer: > 50 µg/mL

Question: What about the neutralization IC50 [14] of the same substance?
Answer: 0.015 µg/mL

Question: And the neutralization IC50 [15]?
Answer: 0.017 µg/mL

Question: What about the neutralization IC50 [16] of the same substance?
Answer: 0.052 µg/mL

Question: And the neutralization IC50 [17]?
Answer: 46.8 µg/mL

Question: What about the neutralization IC50 [18] of the same substance?
Answer: 0.002 µg/mL

Question: And the neutralization IC50 [19]?
Answer: 0.011 µg/mL

Question: What about the neutralization IC50 [20] of the same substance?
Answer: 0.472 µg/mL

Question: And the neutralization IC50 [21]?
Answer: 0.102 µg/mL

Question: What about the neutralization IC50 [22] of the same substance?
Answer: 0.386 µg/mL

Question: What about the neutralization IC50 [23] of the same substance?
Answer: 0.011 µg/mL

Question: What about the neutralization IC50 [24] of the same substance?
Answer: 0.009 µg/mL

Question: And the neutralization IC50 [25]?
Answer: 0.007 µg/mL

Question: What about the neutralization IC50 [26] of the same substance?
Answer: 0.014 µg/mL

Question: What about the neutralization IC50 [27] of the same substance?
Answer: > 50 µg/mL

Question: And the neutralization IC50 [28]?
Answer: 0.036 µg/mL

Question: And the neutralization IC50 [29]?
Answer: > 50 µg/mL

Question: What about the neutralization IC50 [30] of the same substance?
Answer: > 50 µg/mL

Question: What about the neutralization IC50 [31] of the same substance?
Answer: 0.004 µg/mL

Question: And the neutralization IC50 [32]?
Answer: 0.005 µg/mL

Question: What about the neutralization IC50 [33] of the same substance?
Answer: 0.195 µg/mL

Question: And the neutralization IC50 [34]?
Answer: > 50 µg/mL

Question: And the neutralization IC50 [35]?
Answer: 0.137 µg/mL

Question: What about the neutralization IC50 [36] of the same substance?
Answer: 0.823 µg/mL

Question: What about the neutralization IC50 [37] of the same substance?
Answer: 0.098 µg/mL

Question: And the neutralization IC50 [38]?
Answer: 0.005 µg/mL

Question: And the neutralization IC50 [39]?
Answer: > 50 µg/mL

Question: What about the neutralization IC50 [40] of the same substance?
Answer: 7.09 µg/mL

Question: And the neutralization IC50 [41]?
Answer: 0.008 µg/mL

Question: And the neutralization IC50 [42]?
Answer: 0.005 µg/mL

Question: How did the neutralization IC50 [1] turn out when PGT-122 monoclonal antibody (4877_D15) was run?
Answer: 0.006 µg/mL

Question: And the neutralization IC50 [2]?
Answer: 0.021 µg/mL

Question: And the neutralization IC50 [3]?
Answer: 0.013 µg/mL

Question: And the neutralization IC50 [4]?
Answer: 0.016 µg/mL

Question: And the neutralization IC50 [5]?
Answer: 0.013 µg/mL

Question: And the neutralization IC50 [6]?
Answer: 0.004 µg/mL

Question: And the neutralization IC50 [7]?
Answer: 0.032 µg/mL

Question: And the neutralization IC50 [8]?
Answer: 0.778 µg/mL

Question: And the neutralization IC50 [9]?
Answer: 0.25 µg/mL

Question: What about the neutralization IC50 [43] of the same substance?
Answer: 0.019 µg/mL

Question: What about the neutralization IC50 [10] of the same substance?
Answer: 0.011 µg/mL

Question: What about the neutralization IC50 [11] of the same substance?
Answer: 0.057 µg/mL

Question: What about the neutralization IC50 [12] of the same substance?
Answer: 0.026 µg/mL

Question: What about the neutralization IC50 [13] of the same substance?
Answer: 14 µg/mL

Question: And the neutralization IC50 [14]?
Answer: 0.012 µg/mL

Question: And the neutralization IC50 [15]?
Answer: 0.027 µg/mL

Question: And the neutralization IC50 [16]?
Answer: 0.102 µg/mL

Question: And the neutralization IC50 [17]?
Answer: 8.69 µg/mL

Question: What about the neutralization IC50 [18] of the same substance?
Answer: 0.006 µg/mL

Question: And the neutralization IC50 [19]?
Answer: 0.039 µg/mL

Question: What about the neutralization IC50 [20] of the same substance?
Answer: 2.22 µg/mL

Question: And the neutralization IC50 [21]?
Answer: 0.138 µg/mL

Question: What about the neutralization IC50 [22] of the same substance?
Answer: 1.8 µg/mL

Question: What about the neutralization IC50 [23] of the same substance?
Answer: 0.008 µg/mL

Question: And the neutralization IC50 [24]?
Answer: 0.008 µg/mL

Question: And the neutralization IC50 [25]?
Answer: 0.017 µg/mL

Question: And the neutralization IC50 [26]?
Answer: 0.018 µg/mL

Question: And the neutralization IC50 [27]?
Answer: > 50 µg/mL

Question: And the neutralization IC50 [28]?
Answer: 0.066 µg/mL

Question: And the neutralization IC50 [29]?
Answer: 5.66 µg/mL

Question: What about the neutralization IC50 [30] of the same substance?
Answer: > 50 µg/mL

Question: What about the neutralization IC50 [31] of the same substance?
Answer: 0.005 µg/mL

Question: What about the neutralization IC50 [32] of the same substance?
Answer: 0.01 µg/mL

Question: And the neutralization IC50 [33]?
Answer: 2.31 µg/mL

Question: And the neutralization IC50 [34]?
Answer: > 50 µg/mL

Question: And the neutralization IC50 [35]?
Answer: 0.689 µg/mL

Question: And the neutralization IC50 [36]?
Answer: 0.493 µg/mL

Question: What about the neutralization IC50 [37] of the same substance?
Answer: 0.103 µg/mL

Question: What about the neutralization IC50 [38] of the same substance?
Answer: 0.009 µg/mL

Question: What about the neutralization IC50 [39] of the same substance?
Answer: > 50 µg/mL

Question: And the neutralization IC50 [40]?
Answer: > 50 µg/mL

Question: And the neutralization IC50 [41]?
Answer: 0.011 µg/mL

Question: And the neutralization IC50 [42]?
Answer: 0.008 µg/mL
